# The nanobody polyreactivity screen of Harvey et al. (2022)
# Assay: yeast display, Sf9 membrane polyspecificity reagent, FACS + sequencing; frameworks hold sequencing errors
# Summary of the method: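 In a synthetic yeast display library (Saccharomyces cerevisiae BJ5465), nanobody expression was induced with galactose for 36–48 hours. FACS gates were set low and high (top ~1%) using anti-HA fluorescence for expression and streptavidin fluorescence for binding of the Sf9 membrane reagent. Each polyreactivity label is drawn from the gate of origin.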
row,Sequence,polyreactivity (PSR sort gate)
1,QVQLVESGGALVQAGGSLRLSCAASRSTSKNYAMGWYRQAPGKERELVAAITRGTSTNYADSVKGRFTISRDNAKNTVYFQMNSLKPEDSAVYYCNVERHRVWDYQWREEDDYWGQGTQVTVSS,low polyreactivity
2,QVQLVESGGALVQAGGSLRLSCAPSGRIFDFKAIGWYRQAPGKEREFVAAITWGGGSTYYADSVKGRFSISRDNAKNSVYLPMNSLKPEVTAVYYCAADGWYYYQSWFNFGMDYWGQGTQVTVSS,low polyreactivity
3,QVQLVESGGALVQAGGSLRLSCASSGFIFGVYDMGWYRQAPGKERELVAAIDSVGSTYYADSVKGRFTISRDNAKNTVYLQMNSLKPEDTAVYYCAKDGSYQAYGYWGQGTQVTVSS,low polyreactivity
4,QVQLVESGGALVQAGGSLSLSCAASGFIFQPYAMGWYRQAPGKERELVAAITSRGGRTYYADSVMGRFTISRDNAKNTVYLQMNSLKPEDSAVYYCNADIYASEYYYWGQGTQVTVSS,low polyreactivity
5,QVQLVESGGALVQAGGSLSLSCAASGSIFVGNAMGWYRQAPGKERELVAAINGGGTNYADSVKGRFTFSRDNAKNTVYLQMNSLKPEDTAVYYCAAPVRSNDSAYLHRDNDYWGQGTQVTVSS,low polyreactivity
6,QVQLVESGGALVQARGSLRLSSASSGSTFYPNAMGWYIQARGKEREFVAAISFSDGSTYYADSVKGRFTISRDNANNTVYLQMNSPKAEATAVYYCNKGASPDDYDYWGQGTQVTVSS,low polyreactivity
7,QVQLVESGGCLDQAGGSLRLSCAASGRIFNSNTMGWYRQAPGKERELVAAITYSGGSTYYADSVKGRFTISRDNAKNTVYLQMNSLKPEDTAVYYCAADFWEYDGPWYANDYYSWGQGTQVTVSS,low polyreactivity
8,QVQLVESGGCLDQAGGSLRLSWDASGRTFDFNAIGWYRQAPGKERELVAAITHSAGRTYYADSVKGRFTLSRDIAKNTVYLQMNSLKREDTAVYYCATRYYNYARTSYGYWGQGTQVTVSS,high polyreactivity
9,QVQLVESGGCLFQAGGSLRLSCAASGFNFPYYAMGWYRQAPGKERELVAAINRGGSTYYADSEKGRFTISRDNAKNTVYLQMNSLKPEDTAVFYCAAGYPSWYYGYPYDSWGQGTQVNVSS,low polyreactivity
10,QVQLVESGGCLVHAGGSLRLSCAASGRIFYTYAMGWYRQSPGNESELVAAISSRTVSTKYADSVKGRFTISRDNAKYTVYLQMNSLKPEDTAVYYCNVYSLRYGYDYCGQGTQVTVSS,high polyreactivity
11,QVQLVESGGCLVKAGGSLRISCAASGFTFTKYAMGWYRPAPGKESELVAAINRSGRTYYADSVKGRFTISRDNAKNTVYLQMNSLKPEDTAVYDCAAYTRYQYRAYDYWGQGTQVTVSS,high polyreactivity
12,QVQLVESGGCLVQAGCSLRLSCAASGRTFRTYVMGWYRQAPGKEREFVAGITWSSGSTRYADSVKGRFTISRDNAKNTVYLQMNSLKPEDTAVYYCNATPFYLLYSHTYIQYEGDYWGQGTQVTVSS,high polyreactivity
13,QVQLVESGGCLVQAGGRLRLSCAASGFTFNAYSMGWYRQAPGKERELVAAINVSGGITYYADSVKGRFTISRDNAKNTVYLQMNSLKPEDTAVYYCARDIRQYILYGRGDYWGQGTQVTVSS,low polyreactivity
14,QVQLVESGGCLVQAGGSHRLSCAASGSIFYIYAMGWYRQAPGKERELVASITFSGDITYYAYSVKGRFTISRDNAKNTFYLHMNSLKPEDTAVYYCAADYHEQSYAVTYDYWGQGTQVTVSS,low polyreactivity
15,QVQLVESGGCLVQAGGSIRLSCAAYGSNFDNAMGWSRPATGKERELGAAITSGGITNYADSVKGRFTISRDNAKNTVYLQMNSLKPEDTAVYYCNTLSPTQTKFDYWGQGTQVTVTS,low polyreactivity
16,QVQLVESGGCLVQAGGSLRFSCAASGLTFGRNAMGWYRQAPGTERELVAAISRSGGRTSYADSVKGRFTMSRDNAKNTVYLQMNSLKPEETAVYYCAARSDVYTHDYWGQGTQVTVSS,high polyreactivity
17,QVQLVESGGCLVQAGGSLRLICASSGFTFRAYAMGWYIKAPGKEREFVAAISRRGGSTSYADSVKGRFTISRDNAKNTVYLQMNSLKPEDTAVYYCAATYQILTTSAHDSWGQGTQVTVSS,high polyreactivity
